This data set deals with the molecule itself. The data set can be described thus: SEC.

B1: MBP-Opi1 (full-length) (natural protein, S. cerevisiae, UniProt P21957 1-404, looked up)
chain: MSENQRLGLSEEEVEAAEVLGVLKQSCRQKSQPSEDVSQADKMPASESSTTPLNILDRVSNKIISNVVTFYDEINTNKRPLKSIGRLLDDDDDEHDDYDYNDDEFFTNKRQKLSRAIAKGKDNLKEYKLNMSIESKKRLVTCLHLLKLANKQLSDKISCLQDLVEKEQVHPLHKQDGNARTTTGAGEDETSSDEDDDDEEFFDASEQVNASEQSIVVKMEVVGTVKKVYSLISKFTANSLPEPARSQVRESLLNLPTNWFDSVHSTSLPHHASFHYANCEEQKVEQQQQQQQQQQQQQLLQQQLLQQQQQKRNKDGDDSASPSSSVTANGKVLILAKESLEMVRNVMGVVDSTLGKAEEWVKQKQEVKEMIRERFLQQQQQYRQQQQKDGNYVKPSQDNVDSKD
With B1, the binding result is “binds”.

(Values after paper PMC6122994 (The Journal of Cell Biology, 2018).)
